Reference: patent US20110014213A1 (JURIDICAL FDN THE CHEMO SERO THERAP RES INS, published 2011)

Legend:
human α9 integrin = biological target: T1, human α9 integrin (human, UniProt Q13797 30-1035); assay: cell-based or functional assay
T1 sequence: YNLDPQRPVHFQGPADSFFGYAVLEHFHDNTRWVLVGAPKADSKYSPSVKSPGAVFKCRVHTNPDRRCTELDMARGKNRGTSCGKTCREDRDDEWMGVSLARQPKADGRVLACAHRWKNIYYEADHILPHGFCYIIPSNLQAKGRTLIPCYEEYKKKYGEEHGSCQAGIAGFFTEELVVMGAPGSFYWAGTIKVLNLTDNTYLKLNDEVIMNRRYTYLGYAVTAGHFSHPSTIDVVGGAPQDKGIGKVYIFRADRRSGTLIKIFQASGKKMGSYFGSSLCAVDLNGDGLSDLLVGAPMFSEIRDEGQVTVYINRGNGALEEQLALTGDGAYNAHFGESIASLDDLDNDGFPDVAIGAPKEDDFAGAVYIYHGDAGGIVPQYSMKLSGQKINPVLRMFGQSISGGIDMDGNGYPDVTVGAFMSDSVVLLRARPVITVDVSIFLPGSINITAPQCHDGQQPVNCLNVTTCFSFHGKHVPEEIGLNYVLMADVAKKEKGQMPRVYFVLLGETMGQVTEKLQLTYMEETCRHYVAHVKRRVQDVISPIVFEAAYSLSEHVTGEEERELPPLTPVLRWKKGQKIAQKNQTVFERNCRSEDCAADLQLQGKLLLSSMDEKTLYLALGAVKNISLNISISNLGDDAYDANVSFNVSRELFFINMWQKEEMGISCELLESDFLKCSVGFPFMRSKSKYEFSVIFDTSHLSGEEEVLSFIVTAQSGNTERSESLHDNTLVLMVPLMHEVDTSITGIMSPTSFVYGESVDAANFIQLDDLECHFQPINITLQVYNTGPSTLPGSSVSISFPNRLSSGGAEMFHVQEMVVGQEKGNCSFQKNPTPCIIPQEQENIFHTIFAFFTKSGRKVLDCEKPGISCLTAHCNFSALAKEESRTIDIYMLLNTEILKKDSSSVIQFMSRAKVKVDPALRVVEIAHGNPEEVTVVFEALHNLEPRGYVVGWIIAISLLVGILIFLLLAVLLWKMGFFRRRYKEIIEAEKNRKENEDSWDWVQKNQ

mouse α9 integrin = biological target: T2, mouse α9 integrin (mouse, UniProt B8JK39 29-1036); assay: cell-based or functional assay
T2 chain: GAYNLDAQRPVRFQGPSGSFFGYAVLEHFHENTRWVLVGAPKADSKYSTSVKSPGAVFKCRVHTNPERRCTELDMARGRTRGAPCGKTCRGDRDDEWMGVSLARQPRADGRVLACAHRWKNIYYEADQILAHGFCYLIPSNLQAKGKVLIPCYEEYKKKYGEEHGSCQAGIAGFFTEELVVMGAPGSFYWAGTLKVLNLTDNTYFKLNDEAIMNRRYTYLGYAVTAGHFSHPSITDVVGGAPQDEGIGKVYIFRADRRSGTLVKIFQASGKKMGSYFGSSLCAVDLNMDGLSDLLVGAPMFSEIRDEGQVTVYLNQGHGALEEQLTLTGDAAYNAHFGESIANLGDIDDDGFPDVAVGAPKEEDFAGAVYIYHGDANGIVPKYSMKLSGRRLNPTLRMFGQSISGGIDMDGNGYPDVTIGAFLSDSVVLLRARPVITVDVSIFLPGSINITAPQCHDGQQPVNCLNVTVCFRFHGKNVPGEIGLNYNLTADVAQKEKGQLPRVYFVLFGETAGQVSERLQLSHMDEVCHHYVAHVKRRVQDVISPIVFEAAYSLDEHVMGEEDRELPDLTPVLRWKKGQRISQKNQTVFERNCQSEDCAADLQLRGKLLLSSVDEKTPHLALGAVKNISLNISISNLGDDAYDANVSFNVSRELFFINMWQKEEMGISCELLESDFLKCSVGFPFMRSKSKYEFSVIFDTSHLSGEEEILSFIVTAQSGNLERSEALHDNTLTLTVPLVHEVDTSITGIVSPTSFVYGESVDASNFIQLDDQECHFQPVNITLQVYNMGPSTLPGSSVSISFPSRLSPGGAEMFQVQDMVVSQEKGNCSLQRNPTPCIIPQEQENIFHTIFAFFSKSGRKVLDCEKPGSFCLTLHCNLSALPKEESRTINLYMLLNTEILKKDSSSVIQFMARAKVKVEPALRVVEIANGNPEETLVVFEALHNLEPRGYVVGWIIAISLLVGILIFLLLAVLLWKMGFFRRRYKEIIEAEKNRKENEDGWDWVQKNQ

B1: MA9-413 scFv-Fc (Fc fusion)
scFv: EVQLVESGGGVVRPGGSLRLSCAASGFAFGDYGMSWVRQAPGKGLEWVSGINWNGGSTGYADSVKGRFTTSRDNAKNSLYLQMNSLRAEDTALYYCARDENYDILTGYYYYGMDVWGQGTTVTVSSGGGGSGGGGSGGGGSQSVVTQPPSVSAAPGQKVTISCSGSSSNIGNNYVSWYQQLPGTAPKLLIYDNNKRPSGIPDRFSASKSGTSATLGITGLQTGDEADYYCGTWDSSLTVWAFGGGTKLTVLG
notes: Divalent scFv-Fc with mouse IgG1 Fc, expressed in CHO-DG44; also called ANM-2; not shown: Fc region of mouse IgG1 and its junction to the scFv
IC50 of inhibition of α9-dependent cell adhesion (human α9 integrin): 48.5 µg/mL | IC50 of inhibition of α9-dependent cell adhesion (mouse α9 integrin): 0.34 µg/mL
